B1: 1443_C16 (PG16) human monoclonal antibody (antibody, V domains shown)
VH: QEQLVESGGGVVQPGGSLRLSCLASGFTFHKYGMHWVRQAPGKGLEWVALISDDGMRKYHSDSMWGRVTISRDNSKNTLYLQFSSLKVEDTAMFFCAREAGGPIWHDDVKYYDFNDGYYNYHYMDVWGKGTTVTVSS
VL: QSALTQPASVSGSPGQTITISCNGTSSDVGGFDSVSWYQQSPGKAPKVMVFDVSHRPSGISNRFSGSKSGNTASLTISGLHIEDEGDYFCSSLTDRSHRIFGGGTKVTVLG
B2: 1496_C09 (PG9) human monoclonal antibody (antibody, V domains shown)
VH: QRLVESGGGVVQPGSSLRLSCAASGFDFSRQGMHWVRQAPGQGLEWVAFIKYDGSEKYHADSVWGRLSISRDNSKDTLYLQMNSLRVEDTATYFCVREAGGPDYRNGYNYYDFYDGYYNYHYMDVWGKGTTVTVSS
VL: QSALTQPASVSGSPGQSITISCNGTSNDVGGYESVSWYQQHPGKAPKVVIYDVSKRPSGVSNRFSGSKSGNTASLTISGLQAEDEGDYYCKSLTSTRRRVFGTGTKLTVLG

Assays:
[1] = target: HIV-1 ADA Env (gp160), on transfected 293 cells or on ADA pseudovirus (HIV-1 strain ADA); assay: cell-based or functional assay
[2] = target: HIV-1 JR-FL(E168K) Env on pseudovirus (HIV-1 strain JR-FL); assay: cell-based or functional assay
[3] = target: HIV-1 92RW020 Env on pseudovirus (HIV-1 strain 92RW020); assay: cell-based or functional assay
[4] = target: T1, HIV-1 YU2 gp160 expressed on the surface of transfected 293/293T cells (HIV-1 strain YU2, UniProt P35961 32-843); assay: binding to YU2 gp160 on the cell surface (FIG. 7)
T1 construct: whole, on cells

| Binder | IC50 (ug/ml), pseudovirus neutralisation, TZM-bl assay [1] [µg/mL] | IC50 (ug/ml), pseudovirus neutralisation, TZM-bl assay [2] [µg/mL] | IC50 (ug/ml), pseudovirus neutralisation, TZM-bl assay [3] [µg/mL] | binding result [4] |
| --- | --- | --- | --- | --- |
| B1 | 0.004 | 0.006 | 0.09 | binds |
| B2 | 0.2 |  | 0.1 |  |

Reference: US20150218257A1 (published 2015)
